Assays:
[1] = test system: Bacteroides fragilis NB85001; experiment: MIC against anaerobic bacteria; type: cell-based
[2] = test system: Prevotella intermedia NB88001; experiment: MIC against anaerobic bacteria; type: cell-based
[3] = test system: Eubacterium lentum NB94001; experiment: MIC against anaerobic bacteria; type: cell-based
[4] = test system: E. coli NB27005* (TolC efflux pump mutant); experiment: MIC against aerobic gram negative bacteria, efflux pump mutant; type: cell-based, Escherichia coli; details: aerobic gram negative; E. coli NB27005*, TolC efflux pump mutant strain
[5] = test system: H. influenzae NB65027-CDS0021* (TolC efflux pump mutant); experiment: as above; type: cell-based, Haemophilus influenzae; details: aerobic gram negative; H. influenzae NB65027-CDS0021*, TolC efflux pump mutant strain
S. aureus = experiment: Bacterial growth inhibition (FIG. 14, FIG. 16); type: cell-based, Staphylococcus aureus
Method: Values shown are relative to controls incubated in the absence of LRR domains (100%).
This inhibition was unaffected by the co-administration of MDP, LPS, or PGN.

L. monocytogenes = experiment: Bacterial growth inhibition (FIG. 15); type: cell-based, Listeria monocytogenes; details: FIG. 15 Panel C
[6] = test system: Listeria monocytogenes (7644); experiment: BacTiter-Glo bacterial ATP content viability assay; details: Listeria monocytogenes (7644), gram +; +/− SD, n = 3; >100 = activity detected but <50% inhibition
[7] = test system: Staphylococcus aureus (29213); experiment: BacTiter-Glo bacterial ATP content viability assay
[8] = test system: Pseudomonas aeruginosa (27853); experiment: BacTiter-Glo bacterial ATP content viability assay; details: gram −, +/− SD, n = 3, >100 = activity detected but <50% inhibition
[9] = test system: Salmonella choleraesuis (13076); experiment: BacTiter-Glo bacterial ATP content viability assay; details: gram −, +/− SD, n = 3, >100 = activity detected but <50% inhibition
E. coli = experiment: Membrane polarity, DiBAC4 uptake by flow cytometry; details: FIG. 11 Panel A; 5×10^5 bacteria in 100 μL, 2 hours at 37° C.

B1: Nod2: purified recombinant LRR domain of Nod2 expressed in E. coli; human NOD2-LRR is SEQ ID NO: 3; ~30000 da (protein, listed as Homo sapiens)
chain: PAAPGEAKSVHAMPGFIWLIRSLYEMQEERLARKAARGLNVGHLKLTFCSVGPTECAALAFVLQHLRRPVALQLDYNSVGDIGVEQLLPCLGVCKALYLRDNNISDRGICKLIECALHCEQLQKLALFNNKLTDGCAHSMAKLLACRQNFLALRLGNNYITAAGAQVLAEGLRGNTSLQFLGFWGNRVGDEGAQALAEALGDHQSLRWLSLVGNNIGSVGAQALALMLAKNVMLEELCLEENHLQDEGVCSLAEGLKKNSSLKILKLSNNCITYLGAEALLQALERNDTILEVWLRGNTFSLEEVDKLGCRDTRLLL
notes: purified recombinant LRR domain of Nod2 expressed in E. coli; ~30000 da
minimal inhibitory concentration (MIC) [1]: 4 microgram/ml | minimal inhibitory concentration (MIC) [2]: 4 microgram/ml | minimal inhibitory concentration (MIC) [3]: 8 microgram/ml | minimal inhibitory concentration (MIC) [4]: 32 microgram/ml | minimal inhibitory concentration (MIC) [5]: 4 microgram/ml | growth of S. aureus (S. aureus; FIG. 14 Panel B, increasing concentrations, relative to controls (100%)): inhibits the growth | effect of co-administration of MDP, LPS, or PGN on inhibition of S. aureus growth (S. aureus; FIG. 16): unaffected | growth of S. aureus (S. aureus; FIG. 16): inhibited the growth | L. monocytogenes growth (L. monocytogenes): inhibited | antibacterial activity by bacterial ATP content (IC50), [LRR domain] [6]: 13.7 +/− 13.0 microgram/ml | antibacterial activity on S. aureus viability under bacterial stress ([7]; FIG. 13, ATP-coupled luminescent assay at 35° C., 37° C. and 39° C.): increased with bacterial stress | antibacterial activity by bacterial ATP content (IC50), [LRR domain] ([7]; Staphylococcus aureus (29213), gram +, +/− SD, n = 3, >100 = activity detected but <50% inhibition): 6.0 +/− 4.0 microgram/ml | antibacterial activity by bacterial ATP content (IC50), [LRR domain] [8]: None detected | antibacterial activity by bacterial ATP content (IC50), [LRR domain] [9]: None detected | membrane polarity of E. coli (depolarised bacteria taking up DiBAC4) (E. coli): influence
